Tests used:
[1] = system: T1, O=C[C@H](O)[C@@H](O)[C@H](O)CO; test: purified protein, by the assay type; assay type: biochemical, Actinoplanes missouriensis; settings: other: xylose, 35° C., 10 mM Mg2+, pH 7.5
T1 construct: made in house; host or cells: E. coli K514
Experimental: Alternatively, the D-fructose produced during the isomerization reaction can be determined enzymatically using sorbitol dehydrogenase and NADH.
As a measure of specificity the quotient is Vmax /Km is sometimes used (Wells et al., ibid). […] These temperatures are chosen for practical reasons.
Activities were measured on purified enzyme. The coupled sorbitol dehydrogenase assay was used for xylose, the cysteine-carbazole or discontinuous sorbitol dehydrogenase method was used for glucose.

[2] = system: O=C[C@H](O)[C@@H](O)[C@H](O)CO; test: purified protein, by the assay type; settings: pH 7.5

Chain of Actinoplanes missouriensis glucose isomerase, wild type, SEQ ID NO: 1 (Actinoplanes missouriensis 431) (chain, as listed by the source): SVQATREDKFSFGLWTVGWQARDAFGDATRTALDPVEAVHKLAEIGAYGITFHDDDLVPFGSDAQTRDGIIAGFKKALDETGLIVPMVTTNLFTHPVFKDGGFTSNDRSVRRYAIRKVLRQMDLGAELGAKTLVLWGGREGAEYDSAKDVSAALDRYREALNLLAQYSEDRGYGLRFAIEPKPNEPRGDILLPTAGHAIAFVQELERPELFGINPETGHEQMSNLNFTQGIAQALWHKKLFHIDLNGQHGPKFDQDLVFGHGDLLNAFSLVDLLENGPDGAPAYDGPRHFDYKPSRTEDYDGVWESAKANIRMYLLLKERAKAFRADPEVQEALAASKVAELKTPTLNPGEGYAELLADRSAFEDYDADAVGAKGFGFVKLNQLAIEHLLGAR
Chain of Actinoplanes missouriensis glucose isomerase variant H290N (Actinoplanes missouriensis 431; H290N) (chain, as listed by the source H290N H290N): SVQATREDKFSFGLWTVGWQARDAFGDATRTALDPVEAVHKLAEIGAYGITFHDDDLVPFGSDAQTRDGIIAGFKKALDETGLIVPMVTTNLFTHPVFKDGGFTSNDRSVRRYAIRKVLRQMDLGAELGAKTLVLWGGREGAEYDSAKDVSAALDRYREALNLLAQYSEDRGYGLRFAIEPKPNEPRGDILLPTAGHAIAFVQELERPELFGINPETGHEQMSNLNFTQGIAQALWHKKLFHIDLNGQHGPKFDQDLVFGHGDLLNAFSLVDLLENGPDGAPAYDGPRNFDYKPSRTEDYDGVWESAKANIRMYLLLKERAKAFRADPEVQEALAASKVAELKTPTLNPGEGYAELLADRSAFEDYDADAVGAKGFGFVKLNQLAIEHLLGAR
Chain of Actinoplanes missouriensis glucose isomerase variant T90S (Actinoplanes missouriensis 431; T90S) (chain, as listed by the source T90S T90S): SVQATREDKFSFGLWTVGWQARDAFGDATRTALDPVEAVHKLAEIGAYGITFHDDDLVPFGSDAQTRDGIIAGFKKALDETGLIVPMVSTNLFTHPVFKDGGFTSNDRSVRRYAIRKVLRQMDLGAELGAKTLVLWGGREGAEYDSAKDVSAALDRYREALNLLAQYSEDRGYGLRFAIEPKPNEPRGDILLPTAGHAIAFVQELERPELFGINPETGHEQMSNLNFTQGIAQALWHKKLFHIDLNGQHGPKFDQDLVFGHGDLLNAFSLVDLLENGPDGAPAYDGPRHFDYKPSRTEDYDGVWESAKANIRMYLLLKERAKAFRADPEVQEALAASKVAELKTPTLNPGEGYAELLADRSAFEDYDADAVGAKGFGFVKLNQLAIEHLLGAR
Chain of Actinoplanes missouriensis glucose isomerase variant A25K (Actinoplanes missouriensis 431; A25K) (chain, as listed by the source A25K A25K): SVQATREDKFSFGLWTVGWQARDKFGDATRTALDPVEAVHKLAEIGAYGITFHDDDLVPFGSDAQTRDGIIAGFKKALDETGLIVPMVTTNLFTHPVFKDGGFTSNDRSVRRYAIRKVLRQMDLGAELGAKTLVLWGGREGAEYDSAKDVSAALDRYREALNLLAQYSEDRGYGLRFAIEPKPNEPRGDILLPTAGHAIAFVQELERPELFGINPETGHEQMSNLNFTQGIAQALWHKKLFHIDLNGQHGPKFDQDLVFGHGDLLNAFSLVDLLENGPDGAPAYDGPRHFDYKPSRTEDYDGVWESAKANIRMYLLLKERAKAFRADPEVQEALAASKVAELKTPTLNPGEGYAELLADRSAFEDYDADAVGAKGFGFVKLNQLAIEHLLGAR
Chain of Actinoplanes missouriensis glucose isomerase variant M88SH290N (M88S/H290N) (Actinoplanes missouriensis 431; H290N/M88S) (chain, as listed by the source M88S H290N H290N M88S): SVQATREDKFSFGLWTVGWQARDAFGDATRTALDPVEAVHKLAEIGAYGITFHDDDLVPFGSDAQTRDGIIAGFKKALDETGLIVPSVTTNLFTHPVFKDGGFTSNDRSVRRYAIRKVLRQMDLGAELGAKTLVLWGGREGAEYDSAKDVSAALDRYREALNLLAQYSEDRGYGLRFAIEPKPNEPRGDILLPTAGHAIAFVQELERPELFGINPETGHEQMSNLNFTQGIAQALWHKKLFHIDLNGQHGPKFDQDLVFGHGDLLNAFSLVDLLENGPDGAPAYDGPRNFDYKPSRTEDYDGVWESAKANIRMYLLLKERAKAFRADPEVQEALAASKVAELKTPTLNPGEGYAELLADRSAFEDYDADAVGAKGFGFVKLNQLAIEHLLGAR
Chain of Actinoplanes missouriensis glucose isomerase variant M88SH243N (M88S/H243N) (Actinoplanes missouriensis 431; H243N/M88S) (chain, as listed by the source M88S H243N H243N M88S): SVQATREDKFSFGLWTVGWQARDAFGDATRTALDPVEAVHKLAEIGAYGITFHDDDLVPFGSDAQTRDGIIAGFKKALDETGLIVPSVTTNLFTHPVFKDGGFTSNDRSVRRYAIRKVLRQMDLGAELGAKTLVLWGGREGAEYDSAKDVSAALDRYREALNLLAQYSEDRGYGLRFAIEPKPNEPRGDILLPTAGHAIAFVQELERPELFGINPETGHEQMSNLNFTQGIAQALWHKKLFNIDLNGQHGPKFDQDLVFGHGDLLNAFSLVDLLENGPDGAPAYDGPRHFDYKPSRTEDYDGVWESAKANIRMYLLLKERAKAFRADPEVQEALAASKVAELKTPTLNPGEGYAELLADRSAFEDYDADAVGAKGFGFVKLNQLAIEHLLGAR
Chain of Actinoplanes missouriensis glucose isomerase variant M88S (Actinoplanes missouriensis 431; M88S) (chain, as listed by the source M88S M88S): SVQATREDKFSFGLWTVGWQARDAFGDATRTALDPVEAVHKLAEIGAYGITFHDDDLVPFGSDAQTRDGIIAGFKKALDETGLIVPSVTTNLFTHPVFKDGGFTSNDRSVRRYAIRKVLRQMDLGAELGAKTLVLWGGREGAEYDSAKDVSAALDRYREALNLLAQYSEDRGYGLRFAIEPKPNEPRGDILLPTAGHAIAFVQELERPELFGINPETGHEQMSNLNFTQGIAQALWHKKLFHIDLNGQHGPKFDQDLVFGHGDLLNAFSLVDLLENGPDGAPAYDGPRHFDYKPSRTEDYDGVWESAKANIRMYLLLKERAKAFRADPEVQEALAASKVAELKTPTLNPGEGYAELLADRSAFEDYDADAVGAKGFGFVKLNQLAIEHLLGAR
Chain of Actinoplanes missouriensis glucose isomerase variant V135Q (Actinoplanes missouriensis 431; V135Q) (chain, as listed by the source V135Q V135Q): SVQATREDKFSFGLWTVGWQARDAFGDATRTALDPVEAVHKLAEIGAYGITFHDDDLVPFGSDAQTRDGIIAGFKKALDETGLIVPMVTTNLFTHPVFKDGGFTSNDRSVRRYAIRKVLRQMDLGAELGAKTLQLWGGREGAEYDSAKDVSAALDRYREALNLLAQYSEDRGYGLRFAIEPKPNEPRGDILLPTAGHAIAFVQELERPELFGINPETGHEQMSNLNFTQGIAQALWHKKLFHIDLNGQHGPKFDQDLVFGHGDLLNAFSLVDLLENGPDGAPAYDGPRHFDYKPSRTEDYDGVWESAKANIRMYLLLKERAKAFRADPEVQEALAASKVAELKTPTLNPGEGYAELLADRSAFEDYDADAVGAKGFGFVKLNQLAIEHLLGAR

Substance	Km [1] [mM]	other results
Actinoplanes missouriensis glucose isomerase variant A25K (Actinoplanes missouriensis 431; A25K)	2.73	–
Actinoplanes missouriensis glucose isomerase variant H290N (Actinoplanes missouriensis 431; H290N)	9.7	–
Actinoplanes missouriensis glucose isomerase variant M88S (Actinoplanes missouriensis 431; M88S)	7.6	–
Actinoplanes missouriensis glucose isomerase variant M88SH243N (M88S/H243N) (Actinoplanes missouriensis 431; H243N/M88S)	11.9	–
Actinoplanes missouriensis glucose isomerase variant M88SH290N (M88S/H290N) (Actinoplanes missouriensis 431; H290N/M88S)	14.8	–
Actinoplanes missouriensis glucose isomerase variant T90S (Actinoplanes missouriensis 431; T90S)	16.8	–
Actinoplanes missouriensis glucose isomerase variant V135Q (Actinoplanes missouriensis 431; V135Q)	56	–
Actinoplanes missouriensis glucose isomerase, wild type, SEQ ID NO: 1 (Actinoplanes missouriensis 431)	–	Km ([2]; other: 35° C., 1 mM Mn): 13.2 mM; Vmax ([2]; other: 35° C., 1 mM Mn): 8.6 µmol/min/mg; Km ([2]; other: xylose, 35° C., 10 mM Mg2+): 4.8 mM
